Source: patent publication US20210188916A1 (INDUSTRY UNIVERSITY COOPERATION FOUNDATION HANYANG …, published 2021)

Key:
[1] = target: T1, ATP5C1 (endogenous, HCT116 human colon cancer cells) (human, UniProt P36542 26-298); assay: interaction analysis by immunoblot in HCT116 xenograft tumor lysates of treated mice (FIG. 6A, bottom)
T1 construct: Endogenous protein in cell or tumor lysates
T1 sequence: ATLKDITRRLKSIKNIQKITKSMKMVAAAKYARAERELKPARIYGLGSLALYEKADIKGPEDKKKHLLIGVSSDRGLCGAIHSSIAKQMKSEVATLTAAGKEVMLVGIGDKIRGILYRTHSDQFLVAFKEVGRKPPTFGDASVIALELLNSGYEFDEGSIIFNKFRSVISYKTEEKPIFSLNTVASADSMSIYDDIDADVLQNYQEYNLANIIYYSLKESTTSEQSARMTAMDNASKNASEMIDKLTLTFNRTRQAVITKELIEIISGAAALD

[2] = target: T2, ATP5A1 (endogenous, HCT116 human colon cancer cells) (human, UniProt P25705 44-553); assay: as above
T2 construct: Endogenous protein in cell or tumor lysates
T2 sequence (P25705 44-553 limits assumed): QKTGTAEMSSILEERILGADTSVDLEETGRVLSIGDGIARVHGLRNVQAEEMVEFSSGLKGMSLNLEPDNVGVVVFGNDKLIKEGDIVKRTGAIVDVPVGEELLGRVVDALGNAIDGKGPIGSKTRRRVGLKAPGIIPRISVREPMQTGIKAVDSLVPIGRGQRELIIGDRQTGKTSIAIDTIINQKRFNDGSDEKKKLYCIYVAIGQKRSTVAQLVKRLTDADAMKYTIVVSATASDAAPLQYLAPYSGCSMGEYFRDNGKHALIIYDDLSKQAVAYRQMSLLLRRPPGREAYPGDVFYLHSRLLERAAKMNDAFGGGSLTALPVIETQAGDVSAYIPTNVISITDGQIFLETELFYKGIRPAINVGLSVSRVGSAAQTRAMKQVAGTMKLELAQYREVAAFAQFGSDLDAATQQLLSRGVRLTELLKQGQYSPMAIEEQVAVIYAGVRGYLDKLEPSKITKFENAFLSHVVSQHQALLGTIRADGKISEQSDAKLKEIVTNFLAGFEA

B1: rATRAM-GRA8-M/AS (6x His-tagged ATRAM-conjugated multifunctional GRA8 peptide) (peptide)
chain: GLAGLAGLLGLEGLLGLPLGLLEGLWLGLELEGNGLAGLAGLLGLEGLLGLPLGLLEGLWLGLELEGNGGATATTTTTTRGGYRFTVQTTQN
notes: also called rATRAM-G8-M/AS; 6x His-rATRAM-GRA8-M/AS; not shown: N-terminal 6x His tag from the pRSFDuet-1 vector
**Q.** What does the source list for B1?
**A.** binding result [1]: binds; binding result [2]: binds
